Measured values taken from patent publication US10752676B2 (UCB Biopharma SPRL, priority 2011, dated 2020).

Experiments:
[1] = system: Clostridium difficile strain ATCC43596; assay: Anti-C. difficile toxin Mab hamster infection study; assay type: in vivo, Golden Syrian hamsters; conditions: 5 mg/kg twice a day for 5 days (p.o.) on days 1-5
Experimental: The hamster infection study was performed by Ricerca Biosciences LLC, Cleveland, Ohio, USA. The study protocol was approved by the Ricerca IACUC committee. Active and control components (composition and dose) were blinded to Ricerca staff until after completion of the planned 28 day study period.
Golden Syrian male hamsters (weight 82-103 g, 54 days old) were individually housed in HEPA filtered disposable cages and fed Teklad Global Diet 2016 and water ad libitum. After acclimatisation, hamsters were pre-dosed (i.p.) with Mab mixtures or PBS (vehicle control) once a day for each of 4 days: days −3, −2, −1 and 0. Two doses of Mab were investigated: high dose=50 mg/kg each of anti-TcdA and anti-TcdB components and low dose 5 mg/kg each of anti-TcdA and anti-TcdB components.
Hamsters were sensitised (day −1) with 50 mg/kg of Clindamycin phosphate in PBS (s.c.) before being challenged 1 day later (day 0) with 3.4×106 c.f.u. of vegetative cells from strain ATCC43596. […]
Viability checks were performed on animals twice a day, animals found to be in extremis were euthanised and counted as dead. Body weights were determined on each day of dosing, then twice weekly and before euthanising survivors. […] Survival curves were analysed using the P value from the log rank test compared to the Bonferroni corrected threshold of P=0.005. […]

[2] = Thermal stability (Tm) measured via Thermofluor assay; assay type: physicochemical; conditions: PBS pH 7.40
Experimental: This method uses Sypro orange fluorescent dye to monitor the unfolding process of protein domains. The dye binds to exposed hydrophobic regions that become exposed as a consequence of unfolding which results in a change to the emission spectrum.
The sample (5 ul at 1 mg/ml) is mixed with a 5 ul of a stock solution of Sypro orange (30×) and the volume made up to 50 ul with PBS, pH 7.40.
10 ul aliquots of this solution is applied to wells in a 384 well plate (n=4).
The plate is placed in a 7900HT fast real-time PCR system containing a heating device for accurate temperature control. The temperature is increased from 20° C. to 99° C. (Ramp rate of 1.1° C./min). A CCD device simultaneously monitors the fluorescence changes in the wells. An algorithm is used to process intensity data and take into account multiple transitions.

[3] = Estimation of isoelectric point (pI) by capillary IEF; assay type: physicochemical
Experimental: Samples were prepared by mixing the following: 30 ul Protein sample at 2 mg/ml, 0.35% Methylcellulose, 4% pH3-10 ampholytes (Pharmalyte), synthetic pI markers (4.65 and 9.77), 1 ul of each stock solution, and HPLC grade water to make up the final volume to 200 ul. The mixture was then analysed using iCE280 IEF analyzer (pre-focusing at 1500V for 1 min followed by focusing at 3000V for 6 mins). The calibrated electropherograms were then integrated using Empower software (from Waters)

[4] = target: TcdA456 (Clostridioides difficile, UniProt P16154); conditions: Purified Mab 5 point titration
Experimental: (§1) Kinetic constants for the interactions of anti-C. difficile TcdA and TcdB antibodies were determined by surface plasmon resonance conducted on a BIAcore 3000 using CM5 sensor chips. All experiments were performed at 25° C. Affinipure F(ab′)2 fragment goat anti-human IgG, Fc fragment specific (Jackson ImmunoResearch) was immobilised on a CM5 Sensor Chip (GE) via amine coupling chemistry to a capture level of ≈7000 response units (RUs).
(§2) Double referenced background subtracted binding curves were analysed using the BIAevaluation software (version 3.2) following standard procedures. Kinetic parameters were determined from the fitting algorithm

[5] = target: TcdB1234 (Clostridioides difficile, UniProt P18177); conditions: Purified Mab 3 point titration
Experimental: as §1, §2

Molecule	survival [1]	Tm(Fab) in PBS [2]	measured pI [3]	ka [4]	kd [4]	Tm(CH2) [2]	ka [5]	kd [5]
CN[C@H](CC(C)C)C(=O)N[C@H]1C(=O)N[C@@H](CC(N)=O)C(=O)N[C@H]2C(=O)N[C@H]3C(=O)N[C@H](C(=O)N[C@H](C(=O)O)c4cc(O)cc(O)c4-c4cc3ccc4O)[C@H](O)c3ccc(c(Cl)c3)Oc3cc2cc(c3O[C@@H]2O[C@H](CO)[C@@H](O)[C@H](O)[C@H]2O[C@H]2C[C@](C)(N)[C@H](O)[C@H](C)O2)Oc2ccc(cc2Cl)[C@H]1O [vancomycin]	all died on days +10 and +11	–	–	–	–	–	–	–
CA995: humanised anti-toxin A IgG1; light chain variable SEQ ID NO: 37, heavy SEQ ID NO: 39 (antibody, V domains shown, Antibody variable region for anti-TcdA antibody 995 (heavy chain); Antibody variable region for anti-TcdA antibody 995) VH: EVQLVESGGGLVQPGGSLRLSCTASGFSLSNYDMIWVRQAPGKGLEYIGFINTGGITYYASWAKGRFTISRDSSTVYLQMNSLRAEDTATYFCARVDDYIGAWGAGLWGQGTLVTVS VL: DVVMTQSPSTLSASVGDRVTITCQASQSINNYFSWYQQKPGKAPKLLIYGAANLASGVPSRFKGSGSGTEYTLTISSLQPDDFATYSCQNNYGVHIYGAAFGGGTKVEIK	–	71 °C	8.5	287000 M⁻¹ s⁻¹	3.42e-05 s⁻¹	–	–	–
1134.g5: anti-toxin B antibody; light chain variable SEQ ID NO: 147, heavy SEQ ID NO: 149 (antibody, V domains shown, Antibody variable region for anti-TcdB antibody 1134 (heavy chain); Antibody variable region for anti-TcdB antibody 1134) VH: EVQLQESGPGLVKPSETLSLTCTVSGFSLNSYTITWVRQPPGKGLEWIAAISGGGSTYFNSALKSRVTISRDTSKSQVSLKLSSVTAADTAVYYCTRPRWYPRSYFDYWGRGTLVTVS VL: DVQLTQSPSFLSASVGDRVTITCKASKSISNHLAWYQEKPGKANKLLIHSGSTLQPGTPSRFSGSGSGTEFTLTISSLQPEDFATYYCQQYDEYPYTFGQGTRLEIK	–	76.4 °C	9.2	–	–	69.2 °C	509000 M⁻¹ s⁻¹	2.45e-05 s⁻¹
